Laboratory results from PMC11277218.

How the values were obtained:
[1] = biological target: HPV16 pseudovirions (HPV16-PsVs) (human papillomavirus type 16) (UniProt P03101)
[2] = biological target: HPV16 pseudovirions (HPV16-PsVs) (human papillomavirus type 16) (UniProt P03101); remark: listed apart in the source
[3] = biological target: HPV16 pseudovirions (HPV16-PsVs) (human papillomavirus type 16) (UniProt P03101); remark: listed apart in the source

Sequence of UniProt P03101 (P03101 whole entry, chain 1 of 2): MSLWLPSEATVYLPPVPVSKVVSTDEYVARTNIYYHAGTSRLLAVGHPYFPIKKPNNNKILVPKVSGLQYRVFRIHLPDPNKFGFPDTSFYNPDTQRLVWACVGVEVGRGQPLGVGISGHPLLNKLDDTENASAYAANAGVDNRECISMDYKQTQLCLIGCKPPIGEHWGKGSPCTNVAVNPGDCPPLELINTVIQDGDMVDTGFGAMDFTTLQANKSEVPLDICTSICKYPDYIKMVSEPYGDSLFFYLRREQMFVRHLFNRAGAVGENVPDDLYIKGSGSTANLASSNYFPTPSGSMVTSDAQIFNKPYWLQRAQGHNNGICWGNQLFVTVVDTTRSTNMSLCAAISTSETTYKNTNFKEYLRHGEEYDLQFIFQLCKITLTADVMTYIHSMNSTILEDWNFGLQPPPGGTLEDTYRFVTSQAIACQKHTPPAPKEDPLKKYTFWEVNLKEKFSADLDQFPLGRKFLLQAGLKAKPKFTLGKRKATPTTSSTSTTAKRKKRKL
Sequence of UniProt P03101 (P03107 whole entry, chain 2 of 2, further chain): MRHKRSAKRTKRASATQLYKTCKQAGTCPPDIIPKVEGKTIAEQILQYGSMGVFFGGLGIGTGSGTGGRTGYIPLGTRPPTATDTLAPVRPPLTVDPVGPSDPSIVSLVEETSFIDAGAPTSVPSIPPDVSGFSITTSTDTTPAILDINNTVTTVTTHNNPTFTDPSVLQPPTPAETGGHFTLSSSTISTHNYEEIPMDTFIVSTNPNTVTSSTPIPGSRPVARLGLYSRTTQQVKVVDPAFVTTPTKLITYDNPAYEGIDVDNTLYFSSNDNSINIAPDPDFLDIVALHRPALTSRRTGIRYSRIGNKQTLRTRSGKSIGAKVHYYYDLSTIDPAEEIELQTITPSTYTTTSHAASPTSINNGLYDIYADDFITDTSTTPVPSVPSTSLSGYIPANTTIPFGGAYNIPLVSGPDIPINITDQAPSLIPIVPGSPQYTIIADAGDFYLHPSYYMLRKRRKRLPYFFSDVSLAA

“native human surfactant protein A (SP-A) (from UniProt Q8IWL2 21-248) (natural protein)” gave an uptake of SP-A-preincubated AF488-PsVs into RAW264.7 macrophages, MFI by flow cytometry, fold of the BSA control [1] of 1.75 fold, an uptake of SP-A-preincubated AF488-PsVs into RAW264.7 macrophages, positive cells by flow cytometry, fold of the BSA control [1] of 2 fold and an uptake of SP-A-preincubated AF488-PsVs into THP-1-derived immature dendritic cells (DC0), positive cells by flow cytometry, fold of the BSA control [1] of 2 fold. For the same substance, the uptake of SP-A-preincubated AF488-PsVs into THP-1 monocytes, MFI by flow cytometry, fold of the BSA control [1] was 1.3 fold, the infection of HaCaT monocultures by SP-A-preincubated PsVs, Gaussia luciferase at 48 h, against the BSA control [2] was 40 % reduction and the uptake of SP-A-preincubated AF488-PsVs into HaCaT keratinocytes, positive cells by flow cytometry, against the BSA control (fold decrease) [3] was 2.
